Assay results published in patent US20160159919A1 (Chugai, published 2016).
Where a chain is given by its changes, count along the chain named.

B1: H9-G1d/LB-k (antibody, human IgG1, kappa, V domains shown)
VH: QDQLVQSGAEVKKPGASVKVSCKASGFNIKDTYIQWVRQAPGQGLEWMGRIDPLNGNTKYVPKFQDRVTITADTSTNTAYMELSSLRSEDTAVYYCVRSGTLFDFWGQGTLVTVSS
VL: DIQMTQSPSSLSASVGDRVTITCKASQDIHKYIAWYQQKPGQAPRLLIQYTSTLQPGVPSRFSGSGSGTDYTFTISSLQPEDIATYYCLQYDNLRTFGGGTKVEIKR
B2: H43-G1d/LB-k (antibody, human IgG1, kappa, V domains shown)
VH: B1 VH with V61R, D66G
VL: B1 VL
B3: H7-G1d/LB-k (antibody, human IgG1, kappa, V domains shown)
VH: B1 VH with Q65D, D66G
VL: B1 VL
B4: H10-G1d/LB-k (antibody, human IgG1, kappa, V domains shown)
VH: B1 VH with D66E
VL: B1 VL
B5: H87-G1d/L21-k (antibody, human IgG1, kappa, V domains shown)
VH: B1 VH with N55T, N57Q, V61Q, P62E, Q65E, D66G, L102S
VL: B1 VL with K24Q, K106E
B6: H3-G1d/LB-k (antibody, human IgG1, kappa, V domains shown)
VH: B1 VH with P62D, D66G
VL: B1 VL
B7: HY-G1d/L2-k (antibody, human IgG1, kappa, V domains shown)
VH: B1 VH with D66G
VL: B1 VL with K24S
B8: H87-G1d/L37-k (antibody, human IgG1, kappa, V domains shown)
VH: B1 VH with N55T, N57Q, V61Q, P62E, Q65E, D66G, L102S
VL: B1 VL with K24Q, F73L, I83F
B9: H66-G1d/LB-k (antibody, human IgG1, kappa, V domains shown)
VH: B1 VH with N55V, D66G
VL: B1 VL
notes: also called H66-G1/LB-k
B10: H25-G1d/LB-k (antibody, human IgG1, kappa, V domains shown)
VH: B1 VH with D66G, L102S
VL: B1 VL
B11: H5-G1d/LB-k (antibody, human IgG1, kappa, V domains shown)
VH: B1 VH with K63S, D66G
VL: B1 VL
B12: H67-G1d/LB-k (antibody, human IgG1, kappa, V domains shown)
VH: B1 VH with N55L, D66G
VL: B1 VL
notes: also called H67-G1/LB-k
B13: HY-G1d/L32-k (antibody, human IgG1, kappa, V domains shown)
VH: B1 VH with D66G
VL: B1 VL with D92E, N93Q
notes: also called HY-G1/L32-k
B14: H57-G1d/LB-k (antibody, human IgG1, kappa, V domains shown)
VH: B1 VH with N55T, D66G
VL: B1 VL
notes: also called H57-G1/LB-k
B15: HY-G1d/L12-k (antibody, human IgG1, kappa, V domains shown)
VH: B1 VH with D66G
VL: B1 VL with Q55E
B16: H41-G1d/LB-k (antibody, human IgG1, kappa, V domains shown)
VH: B1 VH with V61H, D66G
VL: B1 VL
B17: H44-G1d/LB-k (antibody, human IgG1, kappa, V domains shown)
VH: B1 VH with V61S, D66G
VL: B1 VL
B18: H40-G1d/LB-k (antibody, human IgG1, kappa, V domains shown)
VH: B1 VH with N57Q, D66G
VL: B1 VL
notes: also called H40-G1/LB-k
B19: H65-G1d/LB-k (antibody, human IgG1, kappa, V domains shown)
VH: B1 VH with N55F, D66G
VL: B1 VL
notes: also called H65-G1/LB-k
B20: H71-G1d/LB-k (antibody, human IgG1, kappa, V domains shown)
VH: B1 VH with D31A, D66G
VL: B1 VL
notes: also called H71-G1/LB-k
B21: H45-G1d/LB-k (antibody, human IgG1, kappa, V domains shown)
VH: B1 VH with V61T, D66G
VL: B1 VL
B22: H42-G1d/LB-k (antibody, human IgG1, kappa, V domains shown)
VH: B1 VH with V61K, D66G
VL: B1 VL
B23: H31-G1d/LB-k (antibody, human IgG1, kappa, V domains shown)
VH: B1 VH with P62E, Q65E, D66G
VL: B1 VL
B24: HY-G1d/L30-k (antibody, human IgG1, kappa, V domains shown)
VH: B1 VH with D66G
VL: B1 VL with D92E
notes: the text names only HY-G1d/L32-k as obtained; also called HY-G1/L30-k
B25: H6-G1d/LB-k (antibody, human IgG1, kappa, V domains shown)
VH: B1 VH with K63Q, D66G
VL: B1 VL
B26: H8-G1d/LB-k (antibody, human IgG1, kappa, V domains shown)
VH: B1 VH with Q65E, D66G
VL: B1 VL
B27: H61-G1d/LB-k (antibody, human IgG1, kappa, V domains shown)
VH: B1 VH with N55K, D66G
VL: B1 VL
notes: also called H61-G1/LB-k
B28: H23-G1d/LB-k (antibody, human IgG1, kappa, V domains shown)
VH: B1 VH with N57S, D66G
VL: B1 VL
notes: also called H23-G1/LB-k
B29: H111-G1d/L47-k (antibody, human IgG1, kappa, V domains shown)
VH: B1 VH with N55R, V61R, P62E, Q65E, D66G
VL: B1 VL with N93R
B30: H116-G1d/LB-k (antibody, human IgG1, kappa, V domains shown)
VH: B1 VH with N55R, G56R, V61R, P62E, Q65E, D66G
VL: B1 VL
B31: H117-G1d/LB-k (antibody, human IgG1, kappa, V domains shown)
VH: B1 VH with N55R, N57R, V61R, P62E, Q65E, D66G
VL: B1 VL
B32: H111-G1d/L48-k (antibody, human IgG1, kappa, V domains shown)
VH: B1 VH with N55R, V61R, P62E, Q65E, D66G
VL: B1 VL with L94R
B33: H112-G1d/LB-k (antibody, human IgG1, kappa, V domains shown)
VH: B1 VH with I51R, N55R, V61R, P62E, Q65E, D66G
VL: B1 VL
B34: H118-G1d/LB-k (antibody, human IgG1, kappa, V domains shown)
VH: B1 VH with N55R, T58R, V61R, P62E, Q65E, D66G
VL: B1 VL
B35: H119-G1d/LB-k (antibody, human IgG1, kappa, V domains shown)
VH: B1 VH with N55R, K59R, V61R, P62E, Q65E, D66G
VL: B1 VL
B36: H111-G1d/LB-k (antibody, human IgG1, kappa, V domains shown)
VH: B1 VH with N55R, V61R, P62E, Q65E, D66G
VL: B1 VL

What follows are binders tested against T1, soluble human EREG fragment having a mature EGF domain structure (R&D Systems cat. no. 1195-EP/CF) (human, UniProt O14944 63-108) (assay: competitive ELISA on coated soluble human EREG fragment).
T1 construct: bought; coated on ELISA plates; also called human epiregulin; recombinant human Epiregulin
T1 sequence (O14944 63-108 limits assumed): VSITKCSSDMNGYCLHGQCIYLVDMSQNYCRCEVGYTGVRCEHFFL
Protocol: The soluble human EREG fragment having a mature EGF domain structure (the polypeptide of SEQ ID NO: 34 which corresponds to ⁶³Val to ¹⁰⁸Leu) was purchased from R&D Systems (cat. no. 1195-EP/CF). The soluble human EREG fragment was used to coat nunc immunoplates, and after blocking with a BSA-containing solution, the competitive binding reactivity between mouse hybridoma-derived EP27 and the purified humanized anti-EREG antibody was analyzed. Mouse hybridoma-derived EP27 and a purified humanized anti-EREG antibody were added to the plates, and after two hours of incubation, the plates were washed; and an alkaline phosphatase-labeled anti-human IgG antibody (Zymed) was added to each well of the plates and then allowed to react. Each well was washed, and then the amount of bound antibody (A405/655 detection value) was determined by addition of a test reagent, Sigma p-Nitrophenyl phosphate Tablets.
B1: binds. B2: binds. B3: binds. B4: binds. B5: binds. B6: binds. B7: binds. B8: binds. B9: binds. B10: binds. B11: binds. B12: binds. B13: binds. B14: binds. B15: binds. B16: binds. B17: binds. B18: binds. B19: binds. B20: binds. B21: binds. B22: binds. B23: binds. B24: binds. B25: binds. B26: binds. B27: binds. B28: binds.

What follows are binders tested against T2, cynomolgus EREG (Biacore analyte) (cynomolgus monkey, UniProt O14944 63-108 (human entry), limits assumed) (assay: SPR (Biacore T100), antibody captured on Protein A, EREG as analyte; KD for monkey EREG over KD for human EREG).
T2 construct: also called cynomolgus monkey EREG; cEREG
T2 sequence (O14944 other isoform, or with tags, fused parts or gaps limits assumed): as the sequence (O14944 63-108 limits assumed) above, with S7N, F45Y counted along it
Protocol: The affinity and association rate constant of an anti-EREG antibody for an antigen were measured by the single-cycle kinetics method of surface plasmon resonance assay using Biacore™-T100 (GE Healthcare Japan). HBS-EP+ (GE Healthcare Japan) was used for the running buffer, and an amine coupling kit (GE Healthcare Japan) was used to covalently bond Protein A to the CM5 chip (carboxymethyl dextran-coated chip). Each anti-EREG antibody was prepared so that approximately 350 RU will be captured by Protein A. Human EREG or cynomolgus EREG used as the analyte was prepared at 0, 0.7, 1.4, 2.8, 5.6, and 11.2 nM using HBS-EP+. Measurement was carried out by first allowing Protein A to capture the antibody solution, and then at a flow rate of 30 μL/min, successively injecting each of the 0, 0.7, 1.4, 2.8, 5.6, and 11.2 nM human EREG or cynomolgus EREG solutions for three minutes to allow reaction to take place. Then, the solution was switched to HBS-EP+, and the dissociation phase was measured for 15 minutes. After completion of the dissociation phase measurement, the sensor chip was washed with 25 mM NaOH and regenerated. The measurement at zero concentration was similarly carried out by allowing Protein A to capture the antibody solution, and performing three-minute HBS-EP+ injections successively for five times to allow reaction to take place, and then switching to HBS-EP+ to measure the dissociation phase for 15 minutes. After completion of the dissociation phase measurement, the sensor chip was washed with 25 mM NaOH and regenerated. A data analysis software exclusively for Biacore, Biacore T100 Evaluation Software Version 2.0.1, was used to perform kinetic analyses to calculate the association rate constant (kₐ), dissociation rate constant (kd), and the rate constant ratio from the obtained sensorgrams. To correct for the day-to-day differences in the measurement values, FIGS. 1 to 4 and Tables 16 and 19 show ratios based on taking the value of the control sample (cH-G1/cL-k) measured on the same day as 1.
In the case of B29, the “cEREG KD (nM)/hEREG KD (nM)” value is reported as 12.6 ratio. B30 was tested, and the “cEREG KD (nM)/hEREG KD (nM)” value was 6.1 ratio. In the case of B31, the “cEREG KD (nM)/hEREG KD (nM)” value is reported as 7.9 ratio. In the case of B32, the “cEREG KD (nM)/hEREG KD (nM)” value is reported as 8.4 ratio. For B33, the “cEREG KD (nM)/hEREG KD (nM)” value was 16 ratio. With B34 the “cEREG KD (nM)/hEREG KD (nM)” value was 7.5 ratio. B35 was tested, and the “cEREG KD (nM)/hEREG KD (nM)” value was 9.8 ratio. B36 was tested, and the “cEREG KD (nM)/hEREG KD (nM)” value was 9 ratio.
